{"source": "patent US20210017226A1", "about": "“METHOD OF GENERATING INTERACTING PEPTIDES” (Peption, LLC, priority 2017, published 2021)", "key": {"[1]": {"molecular_target": "T1, PDGF-β target sequence (PTD10, […]) (Homo sapiens, UniProt P01127)", "T1 construct": "[…]; purchased Peptide 2.0", "assay": "Dot blot to detect the PDGF-β target sequence PTD10", "format": "binding", "settings": "beta sheet target", "method": "(§1) Finally, the blot was incubated with the chromogenic substrates."}, "Cas9 protein [2]": {"molecular_target": "T2, Cas9 protein (Streptococcus pyogenes serotype M1, UniProt Q99ZW2)", "T2 construct": "made in house; host or cells: E. coli BL21 Star (DE3)", "T2 sequence (Q99ZW2 whole entry)": "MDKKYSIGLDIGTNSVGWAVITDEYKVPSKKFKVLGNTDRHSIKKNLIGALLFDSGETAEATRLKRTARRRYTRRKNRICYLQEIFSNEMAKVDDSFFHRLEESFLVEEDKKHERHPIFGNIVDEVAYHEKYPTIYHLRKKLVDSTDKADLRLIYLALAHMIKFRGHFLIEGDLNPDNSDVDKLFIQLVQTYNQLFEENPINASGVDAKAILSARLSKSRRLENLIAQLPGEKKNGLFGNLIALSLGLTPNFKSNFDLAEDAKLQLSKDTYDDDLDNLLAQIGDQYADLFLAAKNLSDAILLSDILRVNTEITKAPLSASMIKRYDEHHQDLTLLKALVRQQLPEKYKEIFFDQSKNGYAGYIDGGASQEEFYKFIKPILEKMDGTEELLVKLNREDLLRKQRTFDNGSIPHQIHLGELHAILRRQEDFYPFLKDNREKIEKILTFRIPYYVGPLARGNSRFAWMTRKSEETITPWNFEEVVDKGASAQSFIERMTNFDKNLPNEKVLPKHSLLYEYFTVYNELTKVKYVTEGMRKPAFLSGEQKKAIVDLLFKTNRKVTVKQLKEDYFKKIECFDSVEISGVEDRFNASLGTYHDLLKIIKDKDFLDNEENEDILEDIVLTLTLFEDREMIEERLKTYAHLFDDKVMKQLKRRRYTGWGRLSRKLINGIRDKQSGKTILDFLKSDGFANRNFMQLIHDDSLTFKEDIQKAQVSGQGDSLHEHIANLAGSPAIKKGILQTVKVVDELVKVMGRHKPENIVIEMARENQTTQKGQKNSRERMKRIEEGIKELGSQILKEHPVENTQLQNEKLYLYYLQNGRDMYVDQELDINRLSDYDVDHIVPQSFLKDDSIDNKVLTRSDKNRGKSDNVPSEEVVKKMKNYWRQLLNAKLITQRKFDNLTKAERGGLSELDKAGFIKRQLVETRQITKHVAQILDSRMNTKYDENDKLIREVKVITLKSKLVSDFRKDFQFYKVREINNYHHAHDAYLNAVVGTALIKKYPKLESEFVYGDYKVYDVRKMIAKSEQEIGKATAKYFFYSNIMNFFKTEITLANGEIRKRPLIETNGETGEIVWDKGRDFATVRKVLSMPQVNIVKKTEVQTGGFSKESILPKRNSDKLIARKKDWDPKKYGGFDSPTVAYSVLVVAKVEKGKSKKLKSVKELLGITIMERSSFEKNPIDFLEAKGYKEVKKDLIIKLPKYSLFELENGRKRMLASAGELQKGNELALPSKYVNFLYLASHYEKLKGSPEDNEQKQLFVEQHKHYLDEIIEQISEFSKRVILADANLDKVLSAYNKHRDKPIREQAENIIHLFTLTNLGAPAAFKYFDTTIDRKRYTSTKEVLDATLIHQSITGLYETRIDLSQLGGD", "assay": "Dot blot to detect whole Cas9 protein (non-denatured)", "format": "binding", "settings": "Cas9 (no tag)", "method": "as §1"}, "Cas9 protein [3]": {"molecular_target": "T2, Cas9 protein", "assay": "Western blot to detect whole Cas9 protein (denatured)", "format": "binding", "settings": "Cas9 (no tag), 4-20% SDS-PAGE", "method": "as §1"}, "[4]": {"molecular_target": "control peptide (PTD8, unrelated peptide) (Escherichia coli, UniProt P00634)", "settings": "dot blot, unrelated target (negative control)", "protocol": "For dot blot analysis, 1 μl (2.5 μg) or 2 μl (5 μg) of samples were spotted onto the nitrocellulose (NC) membrane and dried completely. Then, non-specific sites were blocked by soaking the membrane in the blocking solution made for NC membranes [Thermo Fisher Scientific, WesternBreeze™ Blocker/Diluent (Part A and B), catalog #WB7050]. The membrane was washed twice with water (1 ml per cm^2 membrane), and incubated with the 1st antibody (Ab) in a binding/wash (BW) buffer [50 mM sodiumphosphate, pH 8.0, 300 mM NaCl, and 0.01% Tween 20] for 1 h. The membrane was washed 4 times (for 2 minutes per wash) with the wash buffer [Thermo Fisher Scientific, WesternBreeze™ Wash Solution, catalog #WB7003]. If the 1st oligopeptide was Anti-Cas9 Ab-HRP conjugate [Thermo Fisher Scientific, catalog #MAC133P] or the peptide-AP fusions, the membrane was washed twice with water, and incubated with the chromogenic substrates, Chromogenic Substrate (TMB) [Thermo Fisher Scientific, catalog #WP20004] for HRP and NBT/BCIP substrate solution for AP [Thermo Fisher Scientific, catalog #34042]. Otherwise, the membrane was incubated with in the blocking solution for 1 h. To detect His-tagged peptide and proteins, the Anti-6His Ab-HRP conjugate [Thermo Fisher Scientific, catalog 46-0707] was used. Then the membrane was washed four times with the wash buffer and two times with water. […]"}, "[5]": {"test_system": "whole proteome of E. coli BL21 Star DE3", "assay": "Western blot to detect binders in the whole proteome of E. coli BL21 Star DE3 (specificity)", "format": "binding", "description": "For the western blot analysis, the protein samples were resolved in 4-20% gradient SDS-PAGE gel, transferred to NC membrane, and subjected to the western blot analysis using the same method for the dot blot analysis."}, "Cas9 nuclease": {"molecular_target": "T3, Cas9 nuclease (Streptococcus pyogenes serotype M1, UniProt Q99ZW2)", "T3 construct": "made in house; host or cells: E. coli BL21 Star (DE3)", "T3 sequence (Q99ZW2 whole entry, the tested form may be a part)": "as the sequence (Q99ZW2 whole entry) above", "assay": "Cas9 activity assay in vitro (RNA-guided cleavage of 510 bp human AAVS1 DNA)", "format": "biochemical", "source_text": "The sgRNA targeting human AAVS1 region (target sequence […] (SEQ ID NO: 36), PAM sequence underlined) was synthesized by in vitro transcription using a 118 bp PCR-assembled DNA fragment AAVS1_T23826 as template, following the manufacturer's protocol [Thermo Fisher Scientific, TranscriptAid T7 High Yield Transcription Kit, catalog #K0441]. The sgRNA product was purified using the GeneJET RNA Purification Micro Column [Thermo Fisher Scientific, catalog #K0841].\nA 510 bp human AAVS1 region was amplified from HEK293 genomic DNA by PCR using a primer set (CH1161 and CH1162) and used as a target DNA for the in vitro CRISPR/Cas9 assay. Performance of the Cas9 protein was assessed in various concentrations of Cas9 [100, 50, 25, 12.5, and 0 ng] in presence or absence of sgRNA and peptides (PTD14 (SEQ ID NO: 11) and PTD16 (SEQ ID NO: 30)) in the 1× buffer K [20 mM Tris-HCl, pH 8.5, 10 mM MgCl2, 1 mM Dithiothreitol (DTT), and 100 mM KCl]. The PTD16 (SEQ ID NO: 30) was used as an unrelated peptide control. The reaction mixture was incubated at 37° C. for 15 minutes. The reaction was stopped by adding a stop buffer [1 mM Tris-HCl (pH 7.5), 10 mM EDTA, 6.5% (w/v) Sucrose, 0.03% (w/v) Bromophenol Blue] and heat inactivated at 75° C. for 5 minutes. The reaction samples were resolved in 4% agarose gel."}, "[6]": {"molecular_target": "T4, Cas9 target sequence (PTD12, EKLYLYYLQ, Helix: E813 to Q821) (Streptococcus pyogenes serotype M1, UniProt Q99ZW2)", "T4 construct": "[…]; purchased Peptide 2.0", "assay": "Dot blot to detect the Cas9 target sequence peptide PTD12", "format": "binding", "settings": "for interaction of His-tagged synthetic CAAP oligopeptide with the target peptide PTD12: dot blot, peptide as 1st Ab, Anti-6His Ab-HRP detection", "method": "as §1\nFor the image processing, we used Adobe Photoshop 7.0. Quantitative image analysis of the digital images was carried out using measuring tools of imaging software ImageJ (Schneider et al. 2012). Image analysis results were calculated by averaging data from three independent experiments."}, "[7]": {"molecular_target": "alkaline phosphatase target sequence (PTD8, […]) (Escherichia coli, UniProt P00634)", "settings": "dot blot, coil-beta sheet-coil target", "protocol": "For dot blot analysis, 1 μl (2.5 μg) or 2 μl (5 μg) of samples were spotted onto the nitrocellulose (NC) membrane and dried completely. Then, non-specific sites were blocked by soaking the membrane in the blocking solution made for NC membranes [Thermo Fisher Scientific, WesternBreeze™ Blocker/Diluent (Part A and B), catalog #WB7050]. The membrane was washed twice with water (1 ml per cm^2 membrane), and incubated with the 1st antibody (Ab) in a binding/wash (BW) buffer [50 mM sodiumphosphate, pH 8.0, 300 mM NaCl, and 0.01% Tween 20] for 1 h. The membrane was washed 4 times (for 2 minutes per wash) with the wash buffer [Thermo Fisher Scientific, WesternBreeze™ Wash Solution, catalog #WB7003]. If the 1st oligopeptide was Anti-Cas9 Ab-HRP conjugate [Thermo Fisher Scientific, catalog #MAC133P] or the peptide-AP fusions, the membrane was washed twice with water, and incubated with the chromogenic substrates, Chromogenic Substrate (TMB) [Thermo Fisher Scientific, catalog #WP20004] for HRP and NBT/BCIP substrate solution for AP [Thermo Fisher Scientific, catalog #34042]. Otherwise, the membrane was incubated with in the blocking solution for 1 h. To detect His-tagged peptide and proteins, the Anti-6His Ab-HRP conjugate [Thermo Fisher Scientific, catalog 46-0707] was used. Then the membrane was washed four times with the wash buffer and two times with water. Finally, the blot was incubated with the chromogenic substrates."}}, "note": "Entries after “also recorded” stand apart in the source; their conditions may differ.", "data": [{"sequence": "DLDYAQLRDKCYPENEDRLQSYDLDGSGSHHHHHH [PTD18, His-tagged CAAP oligopeptide dimer, parallel and antiparallel, against PDGF-β]", "values": [{"measurement": "interaction with the PDGF-β target oligopeptide PTD10", "setting": "[1]", "value": "bound to the target"}]}, {"sequence": "LLQVDVILLCYPENLEQIKIRLFGSGSHHHHHH [PTD14, synthetic His-tagged CAAP oligopeptide dimer (sAb) against Cas9]", "values": [{"measurement": "detection of whole Cas9 protein in dot blot", "setting": "Cas9 protein [2]", "value": "able to detect"}, {"measurement": "detection of whole Cas9 protein in western blot", "setting": "Cas9 protein [3]", "value": "able to detect"}, {"measurement": "interaction of His-tagged synthetic CAAP oligopeptide with the control peptide PTD8", "setting": "[4]", "value": "no interaction"}, {"measurement": "number of major bands detected in E. coli whole cell lysate", "setting": "[5]", "value": "one"}, {"measurement": "number of minor bands detected in E. coli whole cell lysate", "setting": "[5]", "value": 4}, {"measurement": "effect on RNA-guided DNA cleavage by Cas9 nuclease", "setting": "Cas9 nuclease; 510 bp AAVS1 DNA, 37° C. 15 minutes, PTD16 as unrelated peptide control", "value": "no significant effect"}, {"measurement": "non-specific DNA binding activity of the Cas9 protein directed by the peptide", "setting": "Cas9 nuclease; presence or absence of gRNA, various Cas9 concentrations", "value": "significant induction; also recorded: very strong"}, {"measurement": "strength of interaction with PTD12 relative to monomer PTD13", "setting": "[6]; dot blot densitometry, dimer vs monomer", "value": "stronger (two-fold)"}, {"measurement": "interaction of His-tagged synthetic CAAP oligopeptide with the target peptide PTD12", "setting": "[6]", "value": "could interact"}]}, {"sequence": "LSRAYLSYEGSGSHHHHHH [PTD15]", "values": [{"measurement": "interaction with the AP target oligopeptide PTD8", "setting": "[7]", "value": "no detectable interaction"}]}, {"sequence": "EYRLYLRALCYPENLSRAYLSYEGSGSHHHHHH [PTD16]", "values": [{"measurement": "interaction with the AP target oligopeptide PTD8", "setting": "[7]", "value": "bound to the target"}]}, {"sequence": "GSGSHHHHHH [PTD20, reference compound]", "values": [{"measurement": "interaction with the PDGF-β target oligopeptide PTD10", "setting": "[1]", "value": "no detectable interaction"}, {"measurement": "interaction with the AP target oligopeptide PTD8", "setting": "[7]", "value": "no detectable interaction"}]}, {"sequence": "LEQIKIRLFGSGSHHHHHH [PTD13, synthetic His-tagged CAAP oligopeptide monomer (sAb) against Cas9]", "values": [{"measurement": "detection of whole Cas9 protein in dot blot", "setting": "Cas9 protein [2]", "value": "unable to detect"}, {"measurement": "detection of whole Cas9 protein in western blot", "setting": "Cas9 protein [3]", "value": "unable to detect"}, {"measurement": "interaction of His-tagged synthetic CAAP oligopeptide with the control peptide PTD8", "setting": "[4]", "value": "no interaction"}, {"measurement": "number of major bands detected in E. coli whole cell lysate", "setting": "[5]", "value": "one"}, {"measurement": "number of minor bands detected in E. coli whole cell lysate", "setting": "[5]", "value": 2}, {"measurement": "interaction of His-tagged synthetic CAAP oligopeptide with the target peptide PTD12", "setting": "[6]", "value": "could interact; also recorded: detected"}]}, {"sequence": "EDRLQSYDLDGSGSHHHHHH [PTD17, His-tagged CAAP oligopeptide monomer, antiparallel, against PDGF-β]", "values": [{"measurement": "interaction with the PDGF-β target oligopeptide PTD10", "setting": "[1]", "value": "no detectable interaction"}]}]}
